The source of these data is publication PMC5578738 (2017).

The target of this experiment is T1, Side-VI (Drosophila, UniProt Q0KI85).
T1 chain: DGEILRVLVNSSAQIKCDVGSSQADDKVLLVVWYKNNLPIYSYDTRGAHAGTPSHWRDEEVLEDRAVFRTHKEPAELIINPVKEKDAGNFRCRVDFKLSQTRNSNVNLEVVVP
Nature of the experiment: SPR equilibrium, monomer ECD.

B1: Beat-Va (protein)
chain: LFVTDISVPEIVDFRDNVTLSCSYDMRGHTLNSVKWYKDHEEFFRYSPLTSPIYMTFDVAGLQVLEGKYVCNESSCRLDLSLQGAKSTGLYKCEVSGDAPHFKLADKADNMTVAA
Broadly, the Kd is the free concentration of one partner at which half of the binding sites on the other are occupied at equilibrium, for simple one-to-one binding. Lower therefore signals higher affinity. Molecule B1 registered a Kd of 0.76 µM.

B2: Beat-Vb (protein)
chain: LRVTDINVPQIVDFRDNVTLSCSYDISGHTLNSVKWYKNGKEFFRYSPLTPPTYIPFAVEGVQLIDDGNECNESSCRVELNLLGVKSSGVYRCEVSGDAPHFQLTARDANMTVEAL
Consider B2, for which the Kd was 2.3 µM.
